# Source: patent US7476386B1 (priority 1997, dated 2009)
# Ends that are not written are not given here. * marks the point of attachment. Palmitoyl = CCCCCCCCCCCCCCCC(=O)*
# Assays:
# Format in all cases: physicochemical
# [1] = Sterilizing filtration (0.22 μm) of lipopeptide mixtures; conditions: for yield (%): batch CK9, 20 mg/ml in 80% acetic acid, filtered 0.22 μm, range reflects precision of determination
# Protocol: The solutions obtained were subjected to ultrasonic action to encourage the dispersion of the aggregates, mixed to give a final volume of 5.5 ml, and the mixture was again subjected to ultrasonic action, then diluted with 9.5 ml of water to obtain a final concentration of about 8% in acetic acid (AcOH), compatible with a good quality freeze-drying. This solution, after a final period in the ultrasonic bath, was filtered over Millipore Millex GV SLGV 0130S filters (0.22 μm).
# An ultrasonic step was used at each stage to ensure effective dispersion of the aggregates.
# The solutions were mixed, then filtered over Millex GV SLGV 0130S filters (0.22 μm). […] The receiver vessels and the filter were then rinsed with water, in sufficient quantity to give a final acetic acid concentration of 8% (final volume 15 ml as before), so as to ensure the quality of the freeze-drying step.
# The procedure used was the same as for the previous batch, apart from the quantities. The solution of the peptide (20 mg/ml in 80% acetic acid) was filtered in 4 portions, changing the filter before its saturation, using identical membranes (Durapore STERIVEX GV 0.22 μm sterile units (Millipore)), then made up with the water used for rinsing the filters and for dilution. The final volume was 1516 ml (including 154 ml of acetic acid: 10% in final solution). The portion volume was 1.3 ml per dose. The apportioned doses were freeze-dried, and analysed using a validated HPLC determination method.
# This set of peptides was synthesized as described in the previous examples.
# This set of peptides was synthesized as described in example 1. The mixture of solutions was performed on a sample of 5 mg of each peptide previously dissolved at a concentration of 20 mg/ml in 80% acetic acid then mixed in the following order: 1: LSA3 NRI; 2: LSA3 NRII; 3: LSA3 CT1; 4 LSA3 RE.
# [2] = Test of uniformity of concentration on batch CK9; conditions: batch CK9, 15 random samples, each injected three times
# Protocol: According to the Pharmacopoeia, powders for parenteral use are subjected to a requirement of uniformity of concentration. The test must be performed on 10 random samples, which are analysed individually for the active ingredient using an appropriate analytical method. The preparation satisfies the test if the concentration of each sample is between 85 and 115% of the average concentration.
# The test was performed on 15 random samples, taken up in solution and diluted in 80% acetic acid according to a standardized operational procedure, so as always to inject an identical proportion of about 15 μg, defined during preparation of the calibration curve. Each sample was injected three times, the concentration of each active ingredient corresponding to the average of the three values obtained.
# [3] = Solubility of the lipopeptides in pure water
# [4] = batch CK2, simple mixture diluted to about 8% acetic acid, 0.22 μm filter
# [5] = batch CK3, each lipopeptide in 80% acetic acid, mixed then filtered 0.22 μm
Substance,"Filtration yield (%) after mixing [1, 4]","Filtration yield (%) after mixing [1, 5]",yield (%) [1],Observed deviation [2],appearance of the solution in pure water [3]
TQGYFPDWQNYTPGPGVRYPLTFGWCYKLVPK(Pam)-NH2 (TQGYFPDWQNYTPGPGVRYPLTFGWCYKLVPK(Palmitoyl)-NH2; N-terminus assumed; SMILES CCCCCCCCCCCCCCCC(=O)NCCCC[C@H](NC(=O)[C@@H]1CCCN1C(=O)[C@@H](NC(=O)[C@H](CC(C)C)NC(=O)[C@H](CCCCN)NC(=O)[C@H](Cc1ccc(O)cc1)NC(=O)[C@H](CS)NC(=O)[C@H](Cc1c[nH]c2ccccc12)NC(=O)CNC(=O)[C@H](Cc1ccccc1)NC(=O)[C@@H](NC(=O)[C@H](CC(C)C)NC(=O)[C@@H]1CCCN1C(=O)[C@H](Cc1ccc(O)cc1)NC(=O)[C@H](CCCNC(=N)N)NC(=O)[C@@H](NC(=O)CNC(=O)[C@@H]1CCCN1C(=O)CNC(=O)[C@@H]1CCCN1C(=O)[C@@H](NC(=O)[C@H](Cc1ccc(O)cc1)NC(=O)[C@H](CC(N)=O)NC(=O)[C@H](CCC(N)=O)NC(=O)[C@H](Cc1c[nH]c2ccccc12)NC(=O)[C@H](CC(=O)O)NC(=O)[C@@H]1CCCN1C(=O)[C@H](Cc1ccccc1)NC(=O)[C@H](Cc1ccc(O)cc1)NC(=O)CNC(=O)[C@H](CCC(N)=O)NC(=O)[C@@H](N)[C@@H](C)O)[C@@H](C)O)C(C)C)[C@@H](C)O)C(C)C)C(N)=O) [NEF 117],81%,quantitative,109.08-116.72%,4.67%,slightly opalescent solution
TRPNNNTRKSIHIGPGRAFYATGEIIGDIRQAHK(Palmitoyl)-NH2 [ENV],95%,quantitative,104.71-110.89%,14.95%,
EWRFDSRLAFHHVARELHPEYFKNK(Pam)-NH2 (EWRFDSRLAFHHVARELHPEYFKNK(Palmitoyl)-NH2; N-terminus assumed; SMILES CCCCCCCCCCCCCCCC(=O)NCCCC[C@H](NC(=O)[C@H](CC(N)=O)NC(=O)[C@H](CCCCN)NC(=O)[C@H](Cc1ccccc1)NC(=O)[C@H](Cc1ccc(O)cc1)NC(=O)[C@H](CCC(=O)O)NC(=O)[C@@H]1CCCN1C(=O)[C@H](Cc1c[nH]cn1)NC(=O)[C@H](CC(C)C)NC(=O)[C@H](CCC(=O)O)NC(=O)[C@H](CCCNC(=N)N)NC(=O)[C@H](C)NC(=O)[C@@H](NC(=O)[C@H](Cc1c[nH]cn1)NC(=O)[C@H](Cc1c[nH]cn1)NC(=O)[C@H](Cc1ccccc1)NC(=O)[C@H](C)NC(=O)[C@H](CC(C)C)NC(=O)[C@H](CCCNC(=N)N)NC(=O)[C@H](CO)NC(=O)[C@H](CC(=O)O)NC(=O)[C@H](Cc1ccccc1)NC(=O)[C@H](CCCNC(=N)N)NC(=O)[C@H](Cc1c[nH]c2ccccc12)NC(=O)[C@@H](N)CCC(=O)O)C(C)C)C(N)=O) [NEF 182],92%,quantitative,96.23-102.05%,5.84%,
VGFPVTPQVPLRPMTYKAAVDLSHFLKEKGGLK(Pam)-NH2 [NEF 66],95%,quantitative,89.14-94.6%,4.23%,
